Experimental data as given in a protein production outcome set (Wang et al. 2014).

Assay: label from the status in PepcDB records
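Further: failed if final PepcDB status was selected cloned or expressed and not failed if soluble or beyond.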

| Sequence | protein production |
| --- | --- |
| MNRLCVLGLLIGLSGSPALAAGQGESGNPPATDKERFIASLMARMSNAEKIGQLRLVSVGADHPKEALMADIRAGKVGAIFNTVTRPDIRAMQDQVRHSRLKIPLFHAYDVAHGHRTIFPISLGLAASWDPEVVARSARISALEASADGLDMSFSPMVDITRDARWGRVSEGFGEDTYLTSLLSGVMVRAYQGSNLAAPDSIMAAVKHFALYGAAEGGRDYNTVDMSLPRMFQDYLPPYKAAVDAGAGAVMVSLNTINGVPATANRWLLTDLLRQQWGFKGLTISDHGAVKELIKHGLAGNERDATRLAIQAGVDMNMNDDLYSTWLPKLLAAGEIDQADIDRACRDVLAAKYDLGLFADPYRRLGK | failed |
| MNRLFGNGRCLDVAIDHGVCNEPSFLDGLENMPAVVKALVDARPDAIQMNYGQADLLQDLPGKDKPALVMRIDMGNPYNRIRHRDMWAVLQNEAEPLVGALQMDAACVVVNLFMLPDEPDLFRQCVQNISRVRADCEKYGMPLMIEPLVMQPVTERGGYMVDGDADKIVTLTRLAREMGADIVKADPTTNAEDFHRVVEAARCPVLVRGGGKEDLAAVFAKSTALMRQGAMGMVYGRNIYQHANPSAVVRGLMAIIHQDASGEEAVAIYRQG | failed |
| MNRLLELSNEIFRIKTDDYTFPLFSSLHFKIILCVVITIFIAIIFKEKIKKWKYRRTFEVTTALILLSTQIFLAIWYSRFPNFYLKESLPLYPCRIAIIMAAIGLIWKKNDFAKSIAYFWGTIGAIGALMIPITNSYIFPHITYYTFFIGHYFLLIASLYLILIEEFKVKSKNVKQALIFSFIFAICAFIANYLFDANYAFLNPPNGYEILNIINVESNIITTSIFAYFIFVLGIFIMYLPFNMSDYKKDSLFECSLIKY | failed |
| MNRPAMPFANTVPGFLPFLNDEKGLRQESQQRYLYTLRPFEAYLNRGGIALSGLEPAHISRFLEERAKTLHKAGMRDTAGALRIFLRYLHREGIVATDLVRSVPRGRIYRQASIPRALEHHHHHH | failed |
| MNRPGVLTSPGSIPLRPRRRDPSGPASARARVEARQRVGKILVVAGWIVSLAGVAIYCVTSFAAGADADLAAILIDGAIPAARAGLAVVGVGTLTWVVGSILHLNASLDAADAERDGPAEG | failed |
| MNRQLLLDVLPAPAPALNNYIAGPNGQALAAAHALTAGRAIYLWGPAGCGRTHLLRGLSARPEAIYIDAARAAQSLRELAEADSTAPMPRLVAVDDVHRMDDARQAGLFALYNRWRESAATGRAFALAVSGDRAPMSLPLREDLRTRLGWDLVFRLDPLSDADKLAALTAQAAERGLQLAPEVINWMLTHHERDIRKLAALLDALDRYSLATGRPITIPLLRAMLADPHSQATLEHHHHHH | not failed |
| MNRRGGQTAFAAIARNERAIAAFIPYSSHLTDTTLITHGADLVRTWRVQGIAFESAEPELVSQRHEQLNGLWRAISCEQVALWIHCIRRKTQAGLDARYENPFCRALDASYNARLNARQAMTNEFYLTLVYRPGHAALGKRAHHGQAEVRRQLLAHVRRMDEIGSLIETTLRSHGENHEQAITVLGCETDSAGRRYSRTLTLLEFLLTGHWQPVRVPAGPVDAYLGSSRILAGAEMMELRAPTCRRYAQFIDFKEYGTHTEPGMLNALLYEDYEYVITHSFSAVGKRQALAYLQRQRAQLANVQDAAYSQIDDLAHAEDALVNGDFVIGEYHFSMMILGADPRQLRRDVSSAMTRIQERGFLATPVTLALDAAFYAQLPANWAYRSRKAMLTSRNFAGLCSFHNFYGGKRDGNPWGPALSLLSTPSGQPFYFNFHHSGLDEDCRGQMMLGNTRIIGQSGSGKTVLLNFLLCQLQKFRSADADGLTTIFFDKDRGAEICIRALDGQYLRIRDGEPTGFNPLQLPCTDRNVMFLDSLLAMLARAHDSPLTSAQHATLATAVRTVLRMPASLRRMSTLLQNITQATSEQRELVRRLGRWCRDDGAGGTGMLWWVFDNPNDCLDFSRPGNYGIDGTAFLDNAETRTPISMYLLHRMNEAMDGRRFVYLMDEAWKWIDDPAFAEFAGDQQLTIRKKNGLGVFSTQMPSSLLGARVAASLVQQCATEIYLPNPRADRAEYLDGFKCTETEYQLIRSMAEDSHLFLVKQGRQAVVAQLDLSGMDDELAILSGNARNLRCFEQALALTRERDPNDWIAVFHRLRREASAGLR | failed |
| MNRSDKWQQRVAQVAYRFNQQYQNQSLELPAEVQEMPIYREWISGILAGKIASPFWEMAQPQKNQHCLDIGCGVSFLIYPWRDWQAFFYGQDVSNVARDTLNSRGSQLNSKLFKGVELGAAHQLKYTLSYFDLAIATGFSCYFPLEYWTSVLQAVKRVLKPDGHFVFDILNAAHPQAEDWAVLETYLGAEVFLEPVTEWEKIINAAGAKVVGRQPGEFFDLYKLRLEHHHHHH | failed |
| MNRTKKRALTVRIVKTAISVALAAVIVVAMVLVNPQLSTNKLISSLMGYNHQSVDNGNASAGDADTNYYTADYTKENIRKAEDKLYDQIASEGTVLLKNDDNELPAQKGTTFSFFSANSVDGSSLTQGYLGTPETVTLKSAFTAAGFKVNETLWNYYESGAGKDYGLATGSVNYGDGEDFRINEAPLAALRKESGLLDSVRGTTPVYVLNRVVGEGRDMPRSMYNHADKQEDKEKSYIELDSTETEIIKYLNDNYKDVILLVKSSAAMELGWVADYPNIKAVVYSQNVTNALAKVFSGEVNPSGKTVDTFAADALASPAAQNFGSYQYYDGNGNATKYNYVDYAEGIYVGYKYYETRYEDKVLGQGNAGDYDYATEVVYPFGYGLSYTDFKWSDFSVATDGDDFVATVTVKNTGDVAGKDVVELYAQTPYTDYDKRNAVEKAAVNLVGYGKTAELEPGASETVKITFGKDQLKSYDYKGAKTYILDAGQYRFTAASDANQAINNILADKGKGMADGMTAEGDKAMVSSWTPENTDVDTTTFATDDATGKAIANLFDAASDPEVTYLTRSDWTGTFPKHYGESSGEINTWGNEINCKDSDGNNASCTWKKTASDELIKQLDGNDSGSTVDKSTITDTPTFGKSNGLKVSDMRGLDYDDEQWDKLLDELTEDDYNQLVYFSGYGVDYIKSVEKPFQTDADAATGWFYGGTGKAFPSIMMLTQTWNASLAEDLGVMMGNEALLGGANGWYAPAMNIHRTPFSGRNGEYYSEDGFMSGSMASLEVKGAATKGVYSYIKHFALNDQENHRGDRPGNFSVATWSNEQAIRETYLKPFDMCMHLGDMDMKTVVKKSDGTYENKTVTTPIAKGVMTSFNRLGATWTGGNYALIQQLLRDEWGFNGLIITDNANTSKFMSPYQMLEAGADIKLLNVSEDPTGEQLDFNDAATYHYARQAMHHLLYTVANSNCMNGALPGAGFTFYNQMKVMQIAFNAICGVILALLAFFSVWRWLPGTIKRVAARKETRAAKKAARKAAKA | failed |
| MNSAALKSCLERENALVVEFLHALEAETEALMDRRAHESLQAAVQRKETLADDLAQLGAERDALLSGAGLASGPAGTDAAAAAHPELGPLWQALQANAAQAREHNQRNGTLIAVNLRHTQESLDALRQAAGTGAAATYDAQGRGKRGYSSA | not failed |
| MNSAPFLIFGGILAWLFVYFLRLRRFYAGEFLLGLFIFGIAITIQSIIQKASLVWFNVHAKLLISLWLGFLAGFIQEGIKYIFVKGMTPYKGAMVGLGFGIAEVILLAVVATLAGSSNVPLYLLVASATERFFAVVFHVASTSLLASSNLRIFLGVFTVHGLVDTLASYSQLSRVLNTPKVFLIEAVFGVFALFLLLISLPRIRVEKEEGPKW | failed |
| MNSFYSQEELKKIGFLSVGKNVLISKKASIYNPGVISVGNNVRIDDFCILSGKVTIGSYSHIAAYTALYGGEVGIEMYDFANISSRTIVYAAIDDFSGNALMGPTIPNQYKNVKTGKVILKKHVIIGAHSIIFPNVVIGEGVAVGAMSMVKESLDDWYIYVGVPVRKIKARKRKIVELENEFLKSMNSLEHHHHHH | failed |
| MNSKFKGIIFMILASAAFATMNLLSKLAVGVNSYQKTFLTNVVATLIVCFIIAYKKGSFFGKKESRKYLLVRGVTGTLSILTNYYALDKMFLSDATILTKLAPFFTIIFSYLLISEKITKKQFTLLIVAFAGSLFVIKPQFSTAIIPSLIGVASAAFAGIAYTMIRVIGDKEDFWTIILSFTSIATIVMLPSMFMNTDNLTLQNILLLVSAGIAFTLGQVALTIAYKNAPASEISMYDYIGLIIAAIYGFMFFKEIPDFLSFTGYIIIVGSSLLNILGNKKTSNKEINEDSSLVSTD | failed |
| MNSKNTICLWYDSAALEAATFYAETFPDSAVLAVHRAPGDYPSGKEGDVLTVEFRVMGIPCLGLNGGPAFRHSEAFSFQVATDDQAETDRLWNAIVDNGGEESACGWCRDKWGISWQITPRVLSEAIASPDRAAARRAFEAMMTMGRIDIATIEKAFKG | not failed |
| MNSLPIADLLASAVIAACIVISTMRGVIAEAGSMVAWVVSFFFAKLFAAPFADLAFASFQPRLFALALSFISLFVIACLIQKMLRSLLTGAVSAVGLGFANRILGGVFGALKGVLIVTLLIMLASKTDLPDTEEWQQSYTVPFFVSLSEAVLNHTDNAPESLDDD | failed |
| MNSPAHALTKPRRRTPRRAVRLARRALVGLTAAAILAGTGMGWVTYHGALDGITTSNALAGESGSVGDTENILIMGLDSRLDQHGNPLPEDVYQALHAGDETVGGYNANVLIVVHLPGDGGPATAFSIPRDDYVDLAGCPSGICKGKVKQAYGFAYQAEMEATESEEEDPATREQKAREAGRKAEIATVRNLLGIPIDHFVEVTLGAFFEIAKAVAPITVCLNDDTSDPYSGADFRKGVQQIDAAQAMAFVRQRRDINDENFTDLDRTRRQQAFLAALVSALRQSGALSSPSKLRGLLDVTKQNVALDAGFDLASFTKRASALTDAPPTLYTLPIKEFGQNAYGEDINIIDVPTIRKIVHDLVSKDDPATTTATPDKPELNGHGATLDVINGSTYTGLAAKLQTTFAADNFTEGQIGDAEALEPATTIDYGPGADAAAHSLATELGVTATPSDWVLADTVRLTIGTDFPGTDYLGADMFTSTTSGASESESYGPSETAELTPITTVAATATGTYTPAPTDLSQMTASGIPCVK | failed |
| MNSPETTWTEENSSCALHLHWYALCERKDLVANSGVVAWLDGKQLALFYLPDTAQGEQLFAIDNRDPKSGANVIGRGLTGQIAGELVIASPLYKQHFRLHDGSCIEYPEQRLEVWPVRLNGERVEIAV | failed |
| MNSPSHLEVREGADINLYNQILIPLYGADIRDSVVQYGLSLAETYDAALHVLYIQDEERTEVESDQVTKQEEWDAAAVIEPVVDQAHSLGLNVIPAVDSGHSPGVIREYAEENDIDLLVHQKPTQTRLARILRRDVSSHIIQNISLPVLTIPDMDPSDPVGELSTSQFTDILVPTDGYDEASVAFKHGLQIAKRYDATLHGLFIISEQSYSSRPGFTWEEVTDSWEQRGTRLLEDITEKAATLDVPVRTTLRFGQPQQEILKYTEVTDIDLVTMGTRGLTGIRRLLQGSVAAQVIEEADYPVLTINRRTAELKKHPYTFLRKTNQNRKSRLY | failed |
| MNSRAADQLELDGLPGTPPDFYRERQRSRVERYQSPAGAPLQCSVQVQTTQEHPLWTSHVWSGARALADTLCWQPELIAGKTVCELGAGAGLVSIVAFLAGADQVVATDYPDPEILNSLESNIREHTANSCSSETVKRASPKVVPYRWGDSPDSLQRCTGLQRFQVVLLADLLSFHQAHDALLRSVKMLLALPANDPTAVALVTFTHHRPHLAERDLAFFRLVNADGALIAEPWLSPLQMDPMFPDDPGDVCIRGQVHRWRLRWRSAASASANIPAHARNE | not failed |
| MNSSIVNAGIDPQVRESLKSFVGEAIDYANTSGKDAAIAKFNDQNGTFVRGNLYVYAFDYNGTTLALPYQPQLIGTDLSGLQDPYGVNYTKVEIFLEHHHHHH | failed |
| MNSTIIIVGILALVFIFLVFGVSSKPLRFIGKALFHVTLGVALLFIVNVVGTYFDFHLPINLGTATITSLLGLPGVAALVVIKLYIMPR | failed |
| MNTARANRENGAGNIYIGFGDSQLSLMDSHQARPEPVHTVCSKPPLKRPPSREEHLRQRLVKTIHSQRIISGKNRLSNPPRMANPQANSIIGISTYFGPTN | failed |
